The values that follow come from doi:10.1101/2021.12.23.474050.

This assay addresses wild-type (WT) RBD of the SARS-CoV-2 spike protein (SARS-CoV-2) (UniProt P0DTC2). Description: ITC.

CC12.1 ScFv came in with a Kd of 23.9 nM.
